Patent US20240261333A1 (published 2024)

T1: MAGT1 (human, UniProt Q9H0U3 30-335, limits assumed)
T1 construct: also called NP_115497.4
T1 sequence (looked up): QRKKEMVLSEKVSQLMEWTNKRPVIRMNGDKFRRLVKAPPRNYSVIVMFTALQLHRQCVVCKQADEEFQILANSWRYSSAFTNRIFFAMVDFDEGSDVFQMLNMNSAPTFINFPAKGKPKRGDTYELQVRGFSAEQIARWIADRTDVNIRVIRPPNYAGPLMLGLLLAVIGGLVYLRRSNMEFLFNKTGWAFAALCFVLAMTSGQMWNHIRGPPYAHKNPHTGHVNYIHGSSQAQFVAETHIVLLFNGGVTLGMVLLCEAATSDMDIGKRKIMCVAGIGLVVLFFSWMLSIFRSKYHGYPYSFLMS

T2: RPN1 (UniProt P04843 24-607)
T2 construct: Endogenous protein found in the co-IP by mass spectrometry; also called NP_002941.1
T2 sequence (looked up): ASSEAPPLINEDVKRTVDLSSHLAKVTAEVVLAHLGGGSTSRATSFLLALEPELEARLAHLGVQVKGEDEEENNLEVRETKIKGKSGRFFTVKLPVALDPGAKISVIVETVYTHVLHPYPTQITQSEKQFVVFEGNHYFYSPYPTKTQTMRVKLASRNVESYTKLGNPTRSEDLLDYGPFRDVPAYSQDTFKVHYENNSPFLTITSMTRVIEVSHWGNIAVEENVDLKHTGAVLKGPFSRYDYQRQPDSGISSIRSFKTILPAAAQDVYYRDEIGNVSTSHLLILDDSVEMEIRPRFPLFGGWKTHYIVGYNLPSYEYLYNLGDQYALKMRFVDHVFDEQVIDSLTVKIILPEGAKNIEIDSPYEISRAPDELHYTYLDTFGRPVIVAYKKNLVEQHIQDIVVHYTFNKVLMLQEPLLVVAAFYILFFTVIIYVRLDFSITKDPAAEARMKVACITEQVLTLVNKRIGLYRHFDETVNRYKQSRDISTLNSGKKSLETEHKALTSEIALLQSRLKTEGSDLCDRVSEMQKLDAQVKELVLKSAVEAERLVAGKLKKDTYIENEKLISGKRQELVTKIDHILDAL

T3: LYZ (UniProt P61626 19-148)
T3 construct: Protein found in the co-IP by mass spectrometry; also called NP_000230.1
T3 sequence (looked up): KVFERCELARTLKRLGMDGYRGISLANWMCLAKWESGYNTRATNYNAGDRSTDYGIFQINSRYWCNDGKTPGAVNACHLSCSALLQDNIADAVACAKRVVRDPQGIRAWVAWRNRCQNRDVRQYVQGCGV


Key:
MAGT1 = target: T1, MAGT1; assay: co-IP with anti-FLAG, mass spectrometry; lysate of cells with N-FLAG B3GNT2
Description: (§1) Cells were plated in 10-cm cell culture dishes and grown to 60-80% confluency. For each condition, two biological replicates were harvested for co-IP. Cells were washed with PBS and 4 mL of lysis buffer (20 mM HEPES, 1% Triton X-100, 150 mM NaCl, 1 mM EDTA, and 10% glycerol) containing protease inhibitor cocktail was added. Cells were scraped and lysate was incubated at 4° C. under rotary agitation for 1 h. Lysate was centrifuged at 14,000×g for 10 min at 4° C. Supernatant was transferred to a new tube and an aliquot was taken as the input. […] For Western blots, 10 μg/mL Chicken Anti-FLAG (Aves labs ET-DY100) and IgY control (R&D Systems AB-101-C) antibodies were biotinylated (Thermo Fisher Scientific 90407) and added to the respective conditions. Lysates with antibodies were incubated at 4° C. under rotary agitation overnight. For each mL of lysate, 50 μL of Pierce Protein A/G Magnetic Beads (Mass spectrometry; Thermo Fisher Scientific 88803) or Pierce Streptavidin Magnetic Beads (Western blot; Thermo Fisher Scientific 88817) was washed twice with lysis buffer. Lysates with antibodies were added to the beads and incubated at 4° C. under rotary agitation for 4 h. Beads were washed with lysis buffer 3 times and resuspended in lysis buffer for storage.
(§2) Magnetic beads were resuspended in 100 mM Tris pH 7.8, reduced, alkylated and digested with trypsin at 37° ° C. overnight. This solution was subjected to solid phase extraction to concentrate the peptides and remove unwanted reagents followed by injection onto a Shimadzu HPLC with fraction collector. Eight fractions were collected and after concentration were injected on a Waters NanoAcquity HPLC equipped with a self-packed Aeris 3 μm C18 analytical column 0.075 mm by 20 cm, (Phenomenex). Peptides were eluted using standard reverse-phase gradients. The effluent from the column was analyzed using a Thermo Orbitrap Elite mass spectrometer (nanospray configuration) operated in a data dependent manner for 54 minutes. The resulting fragmentation spectra were correlated against the known database using Proteome Discover 1.4 (Thermo Fisher Scientific).

HADHA = target: T4, HADHA (human, UniProt P40939 37-763); assay: as above
T4 construct: also called NP_000173.2
Description: as §1, §2

RPL21 = RPL21 (UniProt P46778 2-160); assay: co-IP with anti-FLAG, mass spectrometry; N-FLAG B3GNT2
Description: as §1, §2

HNRNPA1 = target: T5, HNRNPA1 (UniProt P09651 2-372); assay: as above
T5 construct: Endogenous protein found in the co-IP by mass spectrometry; also called NP_112420.1
Description: as §1, §2

RPN1 = target: T2, RPN1; assay: as above
Description: as §1, §2

RPL31 = RPL31 (UniProt P62899 1-125); assay: as above
Description: as §1, §2

RPS11 = RPS11 (UniProt P62280 2-158); assay: as above
Description: as §1, §2

LYZ = target: T3, LYZ; assay: as above
Description: as §1, §2

RPLP2 = target: T6, RPLP2 (UniProt P05387 1-115); assay: as above
T6 construct: Endogenous protein found in the co-IP by mass spectrometry; also called NP_000995.1
Description: as §1, §2

LTF = target: T7, LTF (UniProt P02788 20-710, limits assumed); assay: as above
T7 construct: Protein found in the co-IP by mass spectrometry; also called NP_001308051.1
Description: as §1, §2

T5 sequence (P09651 2-372 limits assumed): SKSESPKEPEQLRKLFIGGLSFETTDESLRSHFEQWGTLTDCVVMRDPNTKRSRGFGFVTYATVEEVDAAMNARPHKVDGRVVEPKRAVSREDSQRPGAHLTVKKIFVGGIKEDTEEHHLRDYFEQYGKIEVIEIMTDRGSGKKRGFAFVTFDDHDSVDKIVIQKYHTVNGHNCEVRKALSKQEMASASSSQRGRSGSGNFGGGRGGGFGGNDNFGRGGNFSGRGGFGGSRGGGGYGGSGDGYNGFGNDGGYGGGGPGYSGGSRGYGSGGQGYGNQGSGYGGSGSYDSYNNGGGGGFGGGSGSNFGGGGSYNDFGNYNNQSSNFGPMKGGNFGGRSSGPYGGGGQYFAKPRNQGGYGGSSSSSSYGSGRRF
T6 sequence (P05387 whole entry): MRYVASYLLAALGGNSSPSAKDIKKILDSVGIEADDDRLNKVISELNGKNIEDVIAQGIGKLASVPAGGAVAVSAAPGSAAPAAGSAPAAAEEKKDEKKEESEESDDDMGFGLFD
T7 sequence (P02788 20-710 limits assumed): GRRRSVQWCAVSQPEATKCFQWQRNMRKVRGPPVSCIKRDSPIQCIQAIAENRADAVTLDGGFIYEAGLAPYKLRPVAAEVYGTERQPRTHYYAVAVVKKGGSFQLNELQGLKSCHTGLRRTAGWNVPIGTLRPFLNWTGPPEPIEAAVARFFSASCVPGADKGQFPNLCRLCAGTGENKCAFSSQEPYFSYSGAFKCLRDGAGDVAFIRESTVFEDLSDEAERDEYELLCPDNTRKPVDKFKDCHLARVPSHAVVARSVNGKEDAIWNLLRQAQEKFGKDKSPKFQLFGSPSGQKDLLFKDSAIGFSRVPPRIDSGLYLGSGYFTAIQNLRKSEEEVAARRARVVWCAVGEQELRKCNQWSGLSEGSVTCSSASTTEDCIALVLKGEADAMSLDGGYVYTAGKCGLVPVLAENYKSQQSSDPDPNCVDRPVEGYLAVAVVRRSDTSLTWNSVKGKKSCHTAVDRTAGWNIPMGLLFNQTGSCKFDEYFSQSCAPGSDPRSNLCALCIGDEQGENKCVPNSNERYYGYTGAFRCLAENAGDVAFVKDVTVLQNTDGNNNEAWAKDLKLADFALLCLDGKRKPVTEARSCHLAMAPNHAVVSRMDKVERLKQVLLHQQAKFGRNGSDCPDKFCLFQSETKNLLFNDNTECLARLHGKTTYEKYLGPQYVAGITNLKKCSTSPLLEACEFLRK
T4 sequence (P40939 37-763 limits assumed): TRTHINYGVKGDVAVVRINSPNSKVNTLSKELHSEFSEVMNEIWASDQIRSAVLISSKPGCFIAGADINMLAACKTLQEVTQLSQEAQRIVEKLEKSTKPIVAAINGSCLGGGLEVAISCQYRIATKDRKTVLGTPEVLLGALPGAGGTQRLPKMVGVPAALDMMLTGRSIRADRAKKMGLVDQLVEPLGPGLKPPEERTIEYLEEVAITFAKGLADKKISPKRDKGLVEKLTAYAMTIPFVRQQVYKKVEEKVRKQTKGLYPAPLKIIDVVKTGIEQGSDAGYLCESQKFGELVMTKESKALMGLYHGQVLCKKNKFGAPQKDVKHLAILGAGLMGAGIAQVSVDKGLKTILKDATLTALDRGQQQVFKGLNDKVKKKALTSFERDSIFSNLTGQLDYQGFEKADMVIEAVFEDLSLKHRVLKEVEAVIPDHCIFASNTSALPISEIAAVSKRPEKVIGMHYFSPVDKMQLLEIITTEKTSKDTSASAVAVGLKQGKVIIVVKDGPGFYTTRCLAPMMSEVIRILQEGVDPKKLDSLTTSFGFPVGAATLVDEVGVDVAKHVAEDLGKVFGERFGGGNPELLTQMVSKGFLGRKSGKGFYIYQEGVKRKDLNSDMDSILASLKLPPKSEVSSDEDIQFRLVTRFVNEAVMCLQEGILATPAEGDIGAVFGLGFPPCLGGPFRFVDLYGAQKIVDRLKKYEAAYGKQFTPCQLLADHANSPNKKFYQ

Row | co-IP mass spectrometry count (MAGT1) | co-IP mass spectrometry count (HADHA) | co-IP mass spectrometry count (RPL21) | co-IP mass spectrometry count (HNRNPA1) | co-IP mass spectrometry count (RPN1) | co-IP mass spectrometry count (RPL31) | co-IP mass spectrometry count (RPS11) | co-IP mass spectrometry count (LYZ) | co-IP mass spectrometry count (RPLP2) | co-IP mass spectrometry count (LTF) | Binder
1 | 0 | 0 | – | – | – | – | – | – | – | – | N-terminal FLAG tagged B3GNT2 (enzyme, human, UniProt Q9NY97 1-397, looked up, Bait of the co-IP; pulled down with mouse anti-FLAG (Millipore Sigma F3165) from cell lysate; also called N-FLAG B3GNT2; N-term FLAG; not shown: N-terminal FLAG tag) MSVGRRRIKLLGILMMANVFIYFIMEVSKSSSQEKNGKGEVIIPKEKFWKISTPPEAYWNREQEKLNRQYNPILSMLTNQTGEAGRLSNISHLNYCEPDLRVTSVVTGFNNLPDRFKDFLLYLRCRNYSLLIDQPDKCAKKPFLLLAIKSLTPHFARRQAIRESWGQESNAGNQTVVRVFLLGQTPPEDNHPDLSDMLKFESEKHQDILMWNYRDTFFNLSLKEVLFLRWVSTSCPDTEFVFKGDDDVFVNTHHILNYLNSLSKTKAKDLFIGDVIHNAGPHRDKKLKYYIPEVVYSGLYPPYAGGGGFLYSGHLALRLYHITDQVHLYPIDDVYTGMCLQKLGLVPEKHKGFRTFDIEEKNKNNICSYVDLMLVHSRKPQEMIDIWSQLQSAHLKC
2 | – | – | 8 | 7 | 0 | 0 | 13 | 3 | 6 | 8 | N-terminal FLAG tagged B3GNT2 (enzyme, human, UniProt Q9NY97 1-397, looked up, FLAG-tagged ORF overexpressed in cells; bait of the anti-FLAG co-IP; also called N-FLAG B3GNT2; N-term FLAG; not shown: FLAG tag at the N-terminus) MSVGRRRIKLLGILMMANVFIYFIMEVSKSSSQEKNGKGEVIIPKEKFWKISTPPEAYWNREQEKLNRQYNPILSMLTNQTGEAGRLSNISHLNYCEPDLRVTSVVTGFNNLPDRFKDFLLYLRCRNYSLLIDQPDKCAKKPFLLLAIKSLTPHFARRQAIRESWGQESNAGNQTVVRVFLLGQTPPEDNHPDLSDMLKFESEKHQDILMWNYRDTFFNLSLKEVLFLRWVSTSCPDTEFVFKGDDDVFVNTHHILNYLNSLSKTKAKDLFIGDVIHNAGPHRDKKLKYYIPEVVYSGLYPPYAGGGGFLYSGHLALRLYHITDQVHLYPIDDVYTGMCLQKLGLVPEKHKGFRTFDIEEKNKNNICSYVDLMLVHSRKPQEMIDIWSQLQSAHLKC
